# Laboratory results taken from paper PMC11602162, “A compact stem-loop DNA aptamer targets a uracil-binding pocket in the SARS-CoV-2 nucleocapsid RNA-binding domain”.
# Key:
# [1] = target: N-NTD (SARS-CoV-2 (Wuhan-Hu-1), UniProt P0DTC9 46-174); assay: competition fluorescence anisotropy; probe N11; 10 mM Tris-HCl pH 7.4, 150 mM NaCl, 1 mM MgCl2; FA with 0.1 mg/ml BSA at 25 C; BLI with 0.05% Tween-20; SEC at ambient temperature; details: protein: recombinant, tags: N-terminal 6xHis removed by HRV 3C
# [2] = target: T1, N protein full-length (SARS-CoV-2 (Wuhan-Hu-1), UniProt P0DTC9 1-419); assay: BLI; immobilized DNA, avidity; 10 mM Tris-HCl pH 7.4, 150 mM NaCl, 1 mM MgCl2; FA with 0.1 mg/ml BSA at 25 C; BLI with 0.05% Tween-20; SEC at ambient temperature; details: protein: recombinant, tags: 6xHis-thioredoxin removed by HRV 3C, chain copies: 2, hairpin
# [3] = target: T1, N protein full-length; assay: fluorescence anisotropy; Hill slope 0.91; 10 mM Tris-HCl pH 7.4, 150 mM NaCl, 1 mM MgCl2; FA with 0.1 mg/ml BSA at 25 C; BLI with 0.05% Tween-20; SEC at ambient temperature; details: protein: recombinant, tags: 6xHis-thioredoxin removed by HRV 3C, chain copies: 2, label: […], 5' biotin in BLI, hairpin, 2 bp stem
# [4] = target: T2, N-NTD (SARS-CoV-2 (Wuhan-Hu-1), UniProt P0DTC9 46-174); assay: DSF; 10 mM Tris-HCl pH 7.4, 150 mM NaCl, 1 mM MgCl2; […]; BLI with 0.05% Tween-20; […]
# [5] = target: T2, N-NTD; assay: competition fluorescence anisotropy; 10 mM Tris-HCl pH 7.4, 150 mM NaCl, 1 mM MgCl2; […]; BLI with 0.05% Tween-20; […]
# [6] = target: T2, N-NTD; assay: competition fluorescence anisotropy; probe N11; 10 mM Tris-HCl pH 7.4, 150 mM NaCl, 1 mM MgCl2; […]; BLI with 0.05% Tween-20; […]
# [7] = target: T2, N-NTD; assay: fluorescence anisotropy; 1 mM Mg2+; 10 mM Tris-HCl pH 7.4, 150 mM NaCl, 1 mM MgCl2; […]; BLI with 0.05% Tween-20; […]
# [8] = target: T1, N protein full-length; assay: fluorescence anisotropy; Hill slope 2.3; 10 mM Tris-HCl pH 7.4, 150 mM NaCl, 1 mM MgCl2; FA with 0.1 mg/ml BSA at 25 C; BLI with 0.05% Tween-20; SEC at ambient temperature; details: protein: recombinant; tags: 6xHis-thioredoxin removed by HRV 3C; chain copies: 2; hairpin
# [9] = target: T2, N-NTD; assay: fluorescence anisotropy; 10 mM Tris-HCl pH 7.4, 150 mM NaCl, 1 mM MgCl2; […]; BLI with 0.05% Tween-20; […]
binder,measurement,setting,value
TTTTTTTTTTTTTTT (ssDNA) [poly-dT15],Ki,[1],4120 nM
CATCGGATTG (ssDNA) [A58-10],Kd,"[2]; label: […], 5' biotin in BLI, […], 2 bp stem",3.77 nM
same,Kd,[3],24.9 nM
UCGGACAUCGGAUUGUCUGA (ssRNA) [A58-20_RNA],binding signal,[4],-0.5 C (Tm shift)
same,Ki,[5],90800 nM
A58 (A58-58) (ssDNA) DNA: GCTGGATGTCACCGGATTGTCGGACATCGGATTGTCTGAGTCATATGACACATCCAGC,Ki,[6],9.92 nM
UCAUGUUAUGGUUGA (structured_RNA) [SL9 RNA],Ki,[1]; stem-loop,15400 nM
UUUUUUUUUUUUUUU (ssRNA) [poly-rU15],Ki,[1],7800 nM
ATCGGATT (ssDNA) [A58-8],binding result,[6],no binding
TCGGACATCGGATTGTCTGA (ssDNA) [A58-20],Kd,[7],101 nM
same,Ki,[6],50.5 nM
same,Kd,[2],0.0101 nM
same,Kd,[8],78.2 nM
"TCGGACATCGGATTGTCTGA (XNA, 2'-fluoro-dG at position 10 (loop G3)) [A58-20-2'FG3]",Kd,[9],74 nM
TCAGACATCGGATTGTCTGA (ssDNA) [A58-20_nwb1],binding signal,[4],4.5 C (Tm shift)
same,Kd,[9],84.9 nM
GUCCCUCAUGUGGGC (structured_RNA) [SL10 RNA],Ki,[1]; stem-loop,38700 nM
"TCGGACATCGGATTGTCTGA (XNA, 2'-fluoro-dG at position 10 (loop G3); i6-FAMK at position 13 (loop T6)) [A58-20-2'FG3-iT6FAM]",Kd,[9],13.9 nM
TCGGACATTTTTTTGTCTGA (ssDNA) [A58-20 TTTTTT],binding signal,[4],0.5 C (Tm shift)
TCGGACATCGGATTGTCCGA (ssDNA) [A58-20_nwb2],binding signal,[4],4.5 C (Tm shift)
same,Kd,[9],87.9 nM
"TCGGACATCGGATTGTCTGA (ssDNA, fluorescein-dT (i6-FAMK) at position 13 (loop T6)) [A58-20-iT6FAM]",Kd,[9],74 nM
